Series [1] concerns HeLa Kyoto. The series is described as follows: solubility in G1/S (NP-40 vs SDS abundance) (log2 ratio); higher = more soluble. The conditions noted are these: cell cycle stage: G1/S.
For series [2], the system named is HeLa Kyoto. Put plainly: melting temperature (median over replicates), in situ; higher = more thermally stable.
In series [3] the test system is HeLa Kyoto. Put plainly: solubility change mitosis vs G1/S (difference of NP-40 vs SDS log2 ratios) (log2 ratio difference); higher = more soluble in mitosis.

The record followed here is the supplement of paper PMC5998384.
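Throughout, for melting temperature (median over replicates), in situ: HeLa Kyoto cells synchronized by double thymidine or nocodazole block, proteins quantified by TMT10plex mass spectrometry, three independent biological replicates.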
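Throughout, for solubility change mitosis vs G1/S (difference of NP-40 vs SDS log2 ratios): synchronized HeLa Kyoto cells (double thymidine block for G1/S, nocodazole release for mitosis), protein amounts in NP-40 versus SDS lysates quantified by mass spectrometry, three biological replicates.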
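Throughout, for solubility in G1/S (NP-40 vs SDS abundance): HeLa Kyoto cells arrested at G1/S by double thymidine block, proteins quantified by TMT10plex mass spectrometry in mild NP-40 versus SDS extracts, three biological replicates.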

Sequence of DNAJC19 (chain, as listed by the source): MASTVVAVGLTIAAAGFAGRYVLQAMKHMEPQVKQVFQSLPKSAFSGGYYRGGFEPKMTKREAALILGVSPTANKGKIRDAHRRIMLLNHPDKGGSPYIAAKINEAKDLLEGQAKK
Sequence of HMGN3 (chain, as listed by the source): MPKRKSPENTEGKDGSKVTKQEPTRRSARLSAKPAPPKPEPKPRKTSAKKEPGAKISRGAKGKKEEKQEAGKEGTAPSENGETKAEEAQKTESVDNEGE

With “MHQPPESTAAAAAAADISARKMAHPAMFPRRGSGSGSASALNAAGTGVGSNATSSEDFPPPSLLQPPPPAASSTSGPQPPPPQSLNLLSQAQLQAQPLAPGGTQMKKKSGFQITSVTPAQISASISSNNSIAEDTESYDDLDESHTEDLSSSEILDVSLSRATDLGEPERSSSEETLNNFQEAETPGAVSPNQPHLPQPHLPHLPQQNVVINGNAHPHHLHHHHQIHHGHHLQHGHHHPSHVAVASASITGGPPSSPVSRKLSTTGSSDSITPVAPTSAVSSSGSPASVMTNMRAPSTTGGIGINSVTGTSTVNNVNITAVGSFNPNVTSSMLGNVNISTSNIPSAAGVSVGPGVTSGVNVNILSGMGNGTISSSAAVSSVPNAAAGMTGGSVSSQQQQPTVNTSRFRVVKLDSSSEPFKKGRWTCTEFYEKENAVPATEGVLINKVVETVKQNPIEVTSERESTSGSSVSSSVSTLSHYTESVGSGEMGAPTVVVQQQQQQQQQQQQQPALQGVTLQQMDFGSTGPQSIPAVSIPQSISQSQISQVQLQSQELSYQQKQGLQPVPLQATMSAATGIQPSPVNVVGVTSALGQQPSISSLAQPQLPYSQAAPPVQTPLPGAPPPQQLQYGQQQPMVSTQMAPGHVKSVTQNPASEYVQQQPILQTAMSSGQPSSAGVGAGTTVIPVAQPQGIQLPVQPTAVPAQPAGASVQPVGQAPAAVSAVPTGSQIANIGQQANIPTAVQQPSTQVPPSVIQQGAPPSSQVVPPAQTGIIHQGVQTSAPSLPQQLVIASQSSLLTVPPQPQGVEPVAQGIVSQQLPAVSSLPSASSISVTSQVSSTGPSGMPSAPTNLVPPQNIAQTPATQNGNLVQSVSQPPLIATNTNLPLAQQIPLSSTQFSAQSLAQAIGSQIEDARRAAEPSLVGLPQTISGDSGGMSAVSDGSSSSLAASASLFPLKVLPLTTPLVDGEDESSSGASVVAIDNKIEQAMDLVKSHLMYAVREEVEVLKEQIKELIEKNSQLEQENNLLKTLASPEQLAQFQAQLQTGSPPATTQPQGTTQPPAQPASQGSGPTA [TSC22D1]”, in the series on HeLa Kyoto [1], the “solubility in G1/S (log2)” value was -0.382. In addition, the results for the melting temperature in the series with HeLa Kyoto [2] (cell cycle stage: G1/S) and with HeLa Kyoto [2] (cell cycle stage: mitosis) were 54.4 °C and 53.1 °C, respectively. Further, in the series with HeLa Kyoto [3], the “solubility change mitosis (log2)” value is -0.0765.

As for “MELIQDTSRPPLEYVKGVPLIKYFAEALGPLQSFQARPDDLLINTYPKSGTTWVSQILDMIYQGGDLEKCNRAPIYVRVPFLEVNDPGEPSGLETLKDTPPPRLIKSHLPLALLPQTLLDQKVKVVYVARNPKDVAVSYYHFHRMEKAHPEPGTWDSFLEKFMAGEVSYGSWYQHVQEWWELSRTHPVLYLFYEDMKENPKREIQKILEFVGRSLPEETMDFMVQHTSFKEMKKNPMTNYTTVPQELMDHSISPFMRKGMAGDWKTTFTVAQNERFDADYAEKMAGCSLSFRSEL [SULT1A3]”, the “solubility in G1/S (log2)” value in the series with HeLa Kyoto [1] stood at 0.432. The melting temperature came out at 48.5 °C in the series with HeLa Kyoto [2] (cell cycle stage: G1/S) and 49.2 °C in the series with HeLa Kyoto [2] (cell cycle stage: mitosis). The “solubility change mitosis (log2)” value in the series with HeLa Kyoto [3] is -0.174.

For the substance “MTTAARPTFEPARGGRGKGEGDLSQLSKQYSSRDLPSHTKIKYRQTTQDAPEEVRNRDFRRELEERERAAAREKNRDRPTREHTTSSSVSKKPRLDQIPAANLDADDPLTDEEDEDFEEESDDDDTAALLAELEKIKKERAEEQARKEQEQKAEEERIRMENILSGNPLLNLTGPSQPQANFKVKRRWDDDVVFKNCAKGVDDQKKDKRFVNDTLRSEFHKKFMEKYIK [CWC15]”, the “solubility in G1/S (log2)” value in the series with HeLa Kyoto [1] amounted to 0.0823. Also, the results for the melting temperature in the series with HeLa Kyoto [2] (cell cycle stage: G1/S) and in the series with HeLa Kyoto [2] (cell cycle stage: mitosis) were 55.4 °C and 55.1 °C, respectively. Besides, the “solubility change mitosis (log2)” value in the series with HeLa Kyoto [3] was determined as 0.681.

On to “MMWQKYAGSRRSMPLGARILFHGVFYAGGFAIVYYLIQKFHSRALYYKLAVEQLQSHPEAQEALGPPLNIHYLKLIDRENFVDIVDAKLKIPVSGSKSEGLLYVHSSRGGPFQRWHLDEVFLELKDGQQIPVFKLSGENGDEVKKE [COA1]”, for which the “solubility in G1/S (log2)” value with HeLa Kyoto [1] was 0.0268. The melting temperature stood at 54.7 °C with HeLa Kyoto [2] (cell cycle stage: G1/S) and 55.7 °C with HeLa Kyoto [2] (cell cycle stage: mitosis). In addition, in the series on HeLa Kyoto [3], the “solubility change mitosis (log2)” value was 0.0489.

In the case of HMGN3, the “solubility in G1/S (log2)” value in the series on HeLa Kyoto [1] was -0.266. The same substance yielded a melting temperature in the series with HeLa Kyoto [2] (cell cycle stage: mitosis) of 56.8 °C. The “solubility change mitosis (log2)” value in the series with HeLa Kyoto [3] was found to be 1.55.

With “MAEPDYIEDDNPELIRPQKLINPVKTSRNHQDLHRELLMNQKRGLAPQNKPELQKVMEKRKRDQVIKQKEEEAQKKKSDLEIELLKRQQKLEQLELEKQKLQEEQENAPEFVKVKGNLRRTGQEVAQAQES [FAM107B]”, the “solubility in G1/S (log2)” value with HeLa Kyoto [1] is 0.00364. For the same substance, the melting temperature in the series on HeLa Kyoto [2] (cell cycle stage: G1/S) worked out at 57.3 °C. Besides, the “solubility change mitosis (log2)” value with HeLa Kyoto [3] was 0.435.

For DNAJC19, the “solubility in G1/S (log2)” value with HeLa Kyoto [1] was -0.0616. Besides, the melting temperature turned out to be 53.4 °C in the series on HeLa Kyoto [2] (cell cycle stage: G1/S) and 53.5 °C with HeLa Kyoto [2] (cell cycle stage: mitosis). Further, in the series with HeLa Kyoto [3], the “solubility change mitosis (log2)” value was found to be 0.348.

As to “MYQDYPGNFDTSSRGSSGSPAHAESYSSGGGGQQKFRVDMPGSGSAFIPTINAITTSQDLQWMVQPTVITSMSNPYPRSHPYSPLPGLASVPGHMALPRPGVIKTIGTTVGRRRRDEQLSPEEEEKRRIRRERNKLAAAKCRNRRRELTEKLQAETEELEEEKSGLQKEIAELQKEKEKLEFMLVAHGPVCKISPEERRSPPAPGLQPMRSGGGSVGAVVVKQEPLEEDSPSSSSAGLDKAQRSVIKPISIAGGFYGEEPLHTPIVVTSTPAVTPGTSNLVFTYPSVLEQESPASPSESCSKAHRRSSSSGDQSSDSLNSPTLLAL [FOSL2]”, the “solubility in G1/S (log2)” value with HeLa Kyoto [1] is 0.191. Moreover, the results for the melting temperature in the series with HeLa Kyoto [2] (cell cycle stage: G1/S) and in the series with HeLa Kyoto [2] (cell cycle stage: mitosis) were 53.9 °C and 55.1 °C, respectively. Further, in the series with HeLa Kyoto [3], the “solubility change mitosis (log2)” value stood at 0.106.
